Results from PMC9697525, “A High-Quality CdSe/CdS/ZnS Quantum-Dot-Based FRET Aptasensor for the Simultaneous Detection of Two Different Alzheimer’s Disease Core Biomarkers”.

Key:
[1] = biological target: amyloid-beta oligomer (AbO), from Abeta(1-40) peptide (UniProt P05067 672-711); experiment: FRET fluorescence recovery (displacement from Au NRs@PDA); Au NRs@PDA quencher; LOD 50 pM (not a Kd); QD-aptamer conjugates (in deionized water) with 0.5 mg/mL Au NRs@PDA stock (55 uL to 20 uL), 30 min quench, then 120 min with protein at room temperature; excitation 405 nm; buffer, salt and pH not stated; conditions: protein: commercial; label: QDs625 (CdSe/CdS/ZnS) via 5' thiol
Chain of amyloid-beta oligomer (AbO), from Abeta(1-40) peptide (P05067 672-711): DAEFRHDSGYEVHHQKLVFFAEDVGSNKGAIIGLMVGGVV

[2] = biological target: amyloid-beta monomer (AbM) (UniProt P05067 672-711); experiment: FRET fluorescence recovery (displacement from Au NRs@PDA); 20 nM AbM; no obvious recovery; QD-aptamer conjugates (in deionized water) with 0.5 mg/mL Au NRs@PDA stock (55 uL to 20 uL), 30 min quench, then 120 min with protein at room temperature; excitation 405 nm; buffer, salt and pH not stated; conditions: protein: commercial; label: QDs665 (CdSe/CdS/ZnS) via 5' thiol
Chain of amyloid-beta monomer (AbM) (P05067 672-711): as above

Row | Binder | binding result [1] | binding result [2]
1 | GCCTGTGTTGGGGCGGGTGCG (ssDNA, 5'-HS-(CH2)6) [AbO aptamer] | binds | –
2 | GCGGAGCGTGGCAGG (ssDNA, 5'-HS-(CH2)6) [tau aptamer] | – | no binding
